This assay concerns the target T1, HLA-A*0201 (human).
T1 construct: MHC monomer first loaded with a UV-sensitive peptide that is cleaved and exchanged for the test peptide; captured on streptavidin; also called peptide-receptive MHC molecules
Description: UV-ligand exchange, streptavidin/anti-b2m sandwich ELISA. The text has this:
Candidate peptides for the vaccines according to the present invention were further tested for immunogenicity by in vitro priming assays. The individual peptide-MHC complexes required for these assays were produced by UV-ligand exchange, where a UV-sensitive peptide is cleaved upon UV-irradiation, and exchanged with the peptide of interest as analyzed. Only peptide candidates that can effectively bind and stabilize the peptide-receptive MHC molecules prevent dissociation of the MHC complexes. To determine the yield of the exchange reaction, an ELISA was performed based on the detection of the light chain (β2m) of stabilized MHC complexes.
96 well MAXISorp plates (NUNC) were coated over night with 2ug/ml streptavidin in PBS at room temperature, washed 4× and blocked for 30 min at 37° C. in 2% BSA containing blocking buffer. Refolded HLAA*0201/MLA-001 monomers served as standards, covering the range of 8-500 ng/ml. Peptide-MHC monomers of the UV-exchange reaction were diluted 100 fold in blocking buffer. Samples were incubated for 1 h at 37° C., washed four times, incubated with 2ug/ml HRP conjugated anti-β2m for 1 h at 37° C., washed again and detected with TMB solution that is stopped with […]. Absorption was measured at 450 nm.
(An ELISA detects its analyte on a solid surface through an enzyme-linked reagent.)
Turning to KIQEILTQV (synthetic peptide from IGF2BP3) [IGF2BP3-001], the “Average exchange yield in %” value came to 46%.
Under YLIHFPVSV (synthetic peptide from AKR1C1, AKR1C2) [AKR-001] stands 13%; under FLLDGSANV (synthetic peptide from COL6A3) [COL6A3-002], 81%.
Under TLWYRAPEV (synthetic peptide from CDK4/CDK6) [CDK4-001] stands 45%.
Under AVVEFLTSV (synthetic peptide from DROSHA) [DROSHA-001] stands 68%; under ALFPHLLQPV (synthetic peptide from CSE1L) [CSE1-001], 55%; under NLIEKSIYL (synthetic peptide from DST) [DST-001], 50%.
Take AMSSKFFLV (synthetic peptide from WNT5A) [WNT5A-001]: the “Average exchange yield in %” value was 37%.
The same measure for ALLRTVVSV (synthetic peptide from GALNT2) [GALNT2-001]: 73%.
The same measure for SLIEDLILL (synthetic peptide from SMYD3) [SMYD3-001]: 50%; for KIQEMQHFL (synthetic peptide from MMP12) [MMP12-003]: 57%; for RLLGPSAAADILQL (synthetic peptide from HUWE1) [HUWE1-001]: 45%.
For the molecule KILEDVVGV (synthetic peptide from TPX2) [TPX2-001], the “Average exchange yield in %” value was determined as 56%.
The same measure for SMSGYDQVL (synthetic peptide from HNRNPH1, HNRNPH2) [HNRNPH-001]: 26%; for ILFEINPKL (synthetic peptide from ABCA13) [ABCA13-001]: 93%.
Under KLVEFDFLGA (synthetic peptide from TACC3) [TACC3-001] stands 54%; under SLYKGLLSV (synthetic peptide from RAD54B) [RAD54B-001], 48%; under TLYPHTSQV (synthetic peptide from VCAN) [VCAN-001], 41%.
The same measure for GLTDNIHLV (synthetic peptide from MXRA5) [MXRA5-002]: 56%.
Take VLFPNLKTV (synthetic peptide from BNC1) [BNC1-001]: the “Average exchange yield in %” value turned out to be 43%.
Under GLIEIISNA (synthetic peptide from SNRNP200) [SNRNP20-001] stands 54%; under FLVDGSWSV (synthetic peptide from COL12A1) [COL12A1-002], 55%; under YVYQNNIYL (synthetic peptide from FAP) [FAP-003], 31%.
As for RLLDSVSRL (synthetic peptide from LAMC2) [LAMC2-001], the “Average exchange yield in %” value came out at 61%.
The same measure for GVLENIFGV (synthetic peptide from PCNXL3) [PCNXL3-001]: 87%; for ALDENLHQL (synthetic peptide from ABCA13) [ABCA13-002]: 36%; for AIDGNNHEV (synthetic peptide from GFPT2) [GFPT2-001]: 43%.
The same measure for KLLTEVHAA (synthetic peptide from ADAM8) [ADAM8-001]: 67%; for SLLPVDIRQYL (synthetic peptide from STAT2) [STAT2-001]: 69%.
Under AIMGFIGFFV (synthetic peptide from SEC61G) [SEC61G-001] stands 18%; under TLSSIKVEV (synthetic peptide from MXRA5) [MXRA5-001], 57%.
Consider ALMDKEGLTAL (synthetic peptide from TANC2) [TANC2-001], for which the “Average exchange yield in %” value amounted to 71%.
The same measure for KLDETNNTL (synthetic peptide from DST) [DST-002]: 59%; for KLAVALLAA (synthetic peptide from IL8) [IL8-001]: 41%.
On to KIVDFSYSV (synthetic peptide from BUB1B) [BUB1B-001], for which the “Average exchange yield in %” value was found to be 59%.
Under SLFGNSGILENV (synthetic peptide from CEP192) [CEP192-001] stands 56%.

The values are drawn from patent US20250066422A1 (published 2025).
